Data set [1] concerns the target T1, unphosphorylated Aurora-A CAKD (Homo sapiens, UniProt O14965, C290A/C393A).
T1 construct: 10 μM Aurora-A kinase domain (phosphorylated or unphosphorylated C290A C393A 122–403); His (N, cleaved yes); made in house; host or cells: E. coli RIL, co-expressed with lambda phosphatase
T1 sequence (O14965 122-403 C290A/C393A): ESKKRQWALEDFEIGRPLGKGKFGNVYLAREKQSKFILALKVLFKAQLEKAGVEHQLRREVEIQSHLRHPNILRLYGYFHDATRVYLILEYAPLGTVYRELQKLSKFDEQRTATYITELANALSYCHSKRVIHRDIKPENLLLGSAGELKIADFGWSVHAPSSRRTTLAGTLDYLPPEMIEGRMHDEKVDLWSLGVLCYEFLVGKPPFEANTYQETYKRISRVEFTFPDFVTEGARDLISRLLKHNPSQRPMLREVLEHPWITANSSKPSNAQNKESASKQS
Briefly: Fluorescence anisotropy competition with FAM-TPX2 7-43. The data set is classed as binding. To be noted: for IC50: competition with 100 nM FAM-TPX2 7-43, 10 μM unphosphorylated Aurora-A CAKD, n = 3 (Appendix Fig. S4E). On the procedure:
(§1) Assays were performed in 25 mM HEPES pH 7.5, 150 mM NaCl, 2 mM DTT, 5 mM MgCl2, 0.01% Tween 20. For CEP192 and TPX2 competition assays 10 μM Aurora-A kinase domain (phosphorylated or unphosphorylated C290A C393A 122–403) was preincubated on ice with 100 nM FAM-TPX2 7-43 or 100 nM FAM-CEP192 501–533. For TACC3 competition, due to weaker binding, 25 μM Aurora-A kinase domain (phosphorylated or unphosphorylated C290A C393A 122–403) was preincubated with 100 nM FAM-TACC3 522-536. Serial dilutions of competitor (CEP192) were performed in triplicate into a low volume 384-well black plate, before the premixed Aurora-A and tracer were added. A control row included no tracer. Plates were left incubating for 1 h at room temperature before the fluorescence anisotropy was measured using a HIDEX plate reader, with excitation at 485 nm and emission at 535 nm. For direct binding experiments, the assay was performed as above, but the Aurora-A (122–403 C290A C393A or point mutants) was diluted across the plate from high to low concentration, before the addition of 50 nM tracer (FAM-CEP192 501–533) to three replicate rows. Buffer only was added to the control row.
(§2) Fluorescence anisotropy data were processed using Microsoft Excel to calculate intensity and anisotropy using the equation listed in (Yeo et al, [2013]). The IC50 and Kd values were calculated using Origin (OriginLab) where the data fitted to a sigmoid and are summarised in Appendix Table S3.
A general note: Fluorescence polarisation rises when a labelled molecule tumbles more slowly, as on binding a larger partner.

Data set [2] deals with T2, phosphorylated Aurora-A CAKD (Homo sapiens, UniProt O14965, C290A/C393A).
T2 construct: 10 nM Aurora-A 122–403 C290A C393A phosphorylated protein; His (N, cleaved yes); made in house; host or cells: E. coli B834 (no lambda phosphatase)
T2 sequence (O14965 122-403 C290A/C393A): T1 sequence (O14965 122-403 C290A/C393A)
Briefly: ITC, CEP192 with phosphorylated Aurora-A CAKD. The data set is classed as binding. To be noted: ratio of Kd, phosphorylated vs unphosphorylated. As for the experimental part: (§3) Thermodynamic information was established using the ITC200 microcalorimeter (MicroCal, Northampton, MA). Proteins were dialysed overnight into 20 mM tris pH 7.5, 200 mM NaCl, 10% glycerol, 5 mM magnesium chloride (CEP192 constructs/mutants and Aurora-A 122–403 mutants). Experiments were carried out at 25 °C. The syringe contained 70 μl of 250 μM Aurora-A 122–403 (D274N C290A C393A or mutant). About 2 μl injections were applied every 180 s. The cell contained 205 μl of 25 μM CEP192 construct/mutant. Microcal Origin software version 7.0 was used to determine the dissociation constants (Kd). All measurements were repeated at least twice.

For data set [3], the target named is T2, phosphorylated Aurora-A CAKD. Briefly: ADP-Glo kinase assay, kemptide substrate. The data set is classed as biochemical. As to conditions: ADP-Glo, phosphorylated Aurora-A CAKD, kemptide; in words. As for the experimental part:
Reactions were initiated by the addition of 10 μM ATP and 100 μM kemptide as substrate (Cambridge Bioscience Ltd). The reactions were incubated at room temperature for 60 min before 5 μl was transferred into 5 ul of ADP-Glo Reagent (Promega) in a 384-well low volume low binding plate (Greiner Bio-one). After a further 40 min at room temperature, 10 μl of kinase detection reagent was added to each well, and the reaction was allowed to incubate for an additional 30 min. Luminescence was measured on a HIDEX Sense plate reader (HIDEX) using a 1 s integration time. Control data was subtracted from the luminescence and three repeats were averaged before being fitted to a sigmoidal plot using Origin (OriginLab), where IC50 and EC50 values were calculated.
In general terms: ADP-Glo first removes unused ATP, then detects ADP through luciferase.

The target of another data set is T3, Aurora-A CAKD (Homo sapiens, UniProt O14965, C290A/C393A).
T3 construct: 25 μM Aurora-A kinase domain (phosphorylated or unphosphorylated C290A C393A 122–403); His (N, cleaved yes); made in house; host or cells: E. coli
T3 sequence (O14965 122-403 C290A/C393A): T1 sequence (O14965 122-403 C290A/C393A)
Briefly: Fluorescence anisotropy competition with FAM-TACC3 522-536. The data set is classed as binding. To be noted: in words. As for the experimental part: as §1, with “For direct binding experiments, the assay was performed as above, but the Aurora-A (122–403 C290A C393A or point mutants) was diluted across the plate from high to low concentration, before the addition of 50 nM tracer (FAM-CEP192 501–533) to three replicate rows. Buffer only was added to the control row.” left out
as §2

The target of data set [4] is T1, unphosphorylated Aurora-A CAKD. Briefly: Fluorescence anisotropy competition with FAM-CEP192 501-533, unphosphorylated Aurora-A. The data set is classed as binding. As for the experimental part:
as §1, §2

Data set [5] deals with T2, phosphorylated Aurora-A CAKD. Briefly: Fluorescence anisotropy competition with FAM-CEP192 501-533, phosphorylated Aurora-A. The data set is classed as binding. As to conditions: competition with 100 nM FAM-CEP192 501-533, 10 μM phosphorylated Aurora-A CAKD, n = 3. On the procedure: as §1, §2
Another data set addresses Aurora-A KD F165D/R205A. Briefly: ITC, CEP192 with Aurora-A KD F165D/R205A. The data set is classed as binding, human. To be noted: 25 °C, pH 7.5. On the procedure:
as §3
Background: Isothermal titration calorimetry measures the heat released or taken up as one component is titrated into another.

B1: CEP192 468-533: recombinant human CEP192 aa 468–533, minimal binding region (protein)
chain: PQSVVYQNEEGRWVTDLAYYTSFNSKQNLNVSLSDEMNEDFRSGSEAFDLIAQDEEEFNKEHQFIQ
modifications: left off: His6, N-terminal, cleaved | SUMO, N-terminal, cleaved
For B1, the IC50 in data set [1] was 3.24 µM; in data set [1] (listed as WT CEP192), roughly 4 µM; in data set [4] (competition with 100 nM FAM-CEP192 501-533, 10 μM unphosphorylated Aurora-A CAKD, n = 3), 1.42 µM; in data set [5] it was 0.63 µM. Besides, the “competition for binding with FAM-TPX2 7-43” value in data set [1] (in words, Aurora-A CAKD) is reported as “competed for binding with FAM-TPX2_7-43”. Further, the “difference in affinity compared to unphosphorylated Aurora-A” value in data set [2] is recorded as “around a twofold difference in affinity”. Besides, the “effect on Aurora-A kinase activity” value in data set [3] is “partially inhibited the activity”. Moreover, in the data set with Aurora-A CAKD, the “competition for binding with FAM-TACC3 522-536” value is on record as “competed for binding with FAM-TACC3_522-536”. In data set [4] (competition with FAM-CEP192 501-533, in words), the “ability to compete for binding, phosphorylated vs unphosphorylated Aurora-A” value is “No significant difference”. The molecule further came in with a Kd at Aurora-A KD F165D/R205A of 26 ± 16 µM.

The term IC50 denotes the concentration needed to halve the response being measured. Broadly, the Kd is a measure of binding affinity in units of concentration. Lower therefore signals higher affinity.

These data come from PMC11574021, “CEP192 localises mitotic Aurora-A activity by priming its interaction with TPX2” (The EMBO Journal, 2024).
